Experimental data published in publication PMC314469, “Protein Interaction Networks by Proteome Peptide Scanning” (PLoS Biology, 2004).

Target: T1, Abp1 SH3 (ABP1_YEAST), P15891
T1 chain: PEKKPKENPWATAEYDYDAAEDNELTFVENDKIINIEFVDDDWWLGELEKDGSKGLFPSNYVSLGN
Assay: SPOT array

Binder | normalised SPOT signal, Boehringer light units (BLU); mean over the file's lines of this peptide
LRNTTTYKSRPDRP [YBR289W 754-767] | 273
LTSGGSLPVSPRP [YOL061W 323-335] | 60
LSKVRGRPMYPRP [YBR083W 422-434] | 382
LQSQFFDSMSPVRP [YGL003C 218-231] | 67.6
LSQLKRFERSPGRP [YFL007W 20-33] | 524
LQVHRDQPREKRP [YDR176W 173-185] | 140
LRLKKSPLKVPSRP [YOR081C 655-668] | 452
LNLIGRRSASPYRP [YDL033C 6-19] | 144
MEVGGVRNYVPQKP [YKL095W 108-121] | 68
LSTVNPAPANRKP [YJL005W 199-211] | 171
LWALLQSGRLPQRP [YDR147W 440-453] | 322
LTNLIRNPRFSKP [YHR168W 311-323] | 631
LYEQFRNPLRSRP [YDR389W 229-241] | 950
LQEDLHDPLEFKP [YKL105C 259-271] | 74.4
LYALVLKPVGKKP [YOR109W 19-31] | 109
LTEITKLPNITRP [YLR152C 193-205] | 150
MAKSQNKPKREKP [YDR381W 195-207] | 2220
LPQDYYDPSFMRP [YIL108W 388-400] | 153
LNLQHQLEYWPHRP [YLR436C 877-890] | 97.9
MAKEDTGVTAPKKP [YOR086C 1-14] | 119

Binder | normalised SPOT signal, Boehringer light units (BLU); mean over the file's lines of this peptide
LTTNKETPANAKP [YAR044W 406-418] | 111
LSRKESKFGTPEKP [YBL052C 441-454] | 75.9
LQKKNDRPSPLKP [YKL101W 858-870] | 450
LQQEQNTPPLPPKP [YCL008C 171-184] | 82.6
LVFELDENLKPSKP [YKL152C 212-225] | 105
LSKKENKVGSPEKP [YOR244W 327-340] | 32.6
LWQYVTDPSYKKP [YBR241C 284-296] | 48.4
LTFANVSFSYPSRP [YKL209C 357-370] | 100
LVDPKVDPILLRP [YBL069W 153-165] | 137
MEEPFIWPEEPRP [YDR405W 164-176] | 184
MFARLANPAHFKP [YOR226C 1-13] | 2660
LSHRLWLYAAPKRP [YMR156C 126-139] | 171
LYMDKFIKLIPMRP [YDR479C 283-296] | 4270
LRQEYSFSLDPDRP [YPR107C 19-32] | 144
LNDSMFFPYPFKP [YGL131C 434-446] | 50.6
LQELKFSPVINKP [YLR022C 137-149] | 66
LYPQGYDPTDPSRP [YDR093W 1465-1478] | 57.7
LWSWVLGPLLSRP [YOL110W 177-189] | 120
LSKNWELPQRLKP [YOL028C 50-62] | 1040
LTSLPVPPPPVRP [YDL140C 236-248] | 68.5

Binder | normalised SPOT signal, Boehringer light units (BLU); mean over the file's lines of this peptide
LQPQNQAPLEPLKP [YIR006C 225-238] | 25.4
LWTNDDYLQQPARP [YER136W 199-212] | 30
LVSATAVPAESKP [YPL074W 405-417] | 25
LWQRKKLGEAPIKP [YLR129W 775-788] | 29.7
LNNLLAPPLSPTKP [YDR425W 249-262] | 79.6
LTLWSQPPDVLKP [YLL031C 923-935] | 104
LNVSAPVVADPTRP [YNR014W 72-85] | 156
MGARNVQPTMFKP [YDL164C 244-256] | 6660
LQHAAEPPVEKRP [YDR174W 207-219] | 54.2
MDTMANILYYPQKP [YOR151C 789-802] | 117
MARGSHFPILNRP [YNL013C 89-101] | 2480
LSLNKAFEKVPRRP [YNL068C 392-405] | 854
LNSSVVVPKTTKP [YIL168W 85-97] | 114
LSYYLAISTNPGRP [YOL003C 52-65] | 40.5
LNDPTATPFTSRP [YNL091W 1210-1222] | 130
MDDFVTPPDEVKP [YBR023C 712-724] | 40.3
LVTPLAGGVTPMKP [YAL054C 478-491] | 93.7
LVSIENAPVSLRP [YGR031W 172-184] | 59.6
